Changes are numbered by the printed parent chain. One block for each binder: values may come before it.
How the values were obtained:
[1] = target: T1, human GPC3-His protein (human, UniProt P51654 25-559); test: ELISA, coated human GPC3, antibody 10 nM;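 also: plate coated with antigen at 1 µg/mL, antibodies bound 2 h at 37 °C, detected via HRP-conjugated secondary antibody and TMB substrate, absorbance read after acid stop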
T1 construct: Bought protein; also called human GPC3 protein; not shown: His tag

[2] = target: T2, GPC3 endogenously expressed on HepG2 cells (UniProt P51654 25-554); test: FACS on HepG2 cells;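 also: flow cytometric binding of chimeric antibodies to cells, read as mean fluorescence intensity, EC50 obtained by curve fitting of the MFI data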
T2 construct: whole, on cells
Procedure: The desired cells were expanded to a logarithmic growth phase in a T-75 cell culture flask, the medium was removed by pipetting, and the cells were washed twice with a PBS buffer, and digested with trypsin. Then a complete medium was added to stop the digestion, and the cells were blown into a single cell suspension. After counting, the cells were centrifuged, and the cell pellet was resuspended with an FACS buffer (PBS+2% fetal bovine serum) to 2×10⁶ cells/mL. The cell resuspension solution was added to a 96-well FACS reaction plate at 50 μl/well, and a chimeric antibody sample to be tested was added at 50 μl/well for incubation at 4° C. for 1 h. […] After the plate was centrifuged and washed 3 times with a PBS buffer, 100 μl of the resulting solution was assayed and analyzed by FACS (FACS Canto™, purchased from BD Biosciences). Data analysis was performed by software (FlowJo) to obtain the mean fluorescence intensity (MFI) of the cells. Then, analysis was performed by software (GraphPad Prism8), data were fitted, and EC₅₀ values were calculated.

[3] = target: T1, human GPC3-His protein; test: ELISA, coated human GPC3, antibody 1 nM;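 also: antigen coated at 1 µg/mL on 96-well plates, antibody bound for 2 h at 37 °C, detected with HRP-labeled secondary antibody and TMB, absorbance read at 450 nm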
[4] = target: T1, human GPC3-His protein; test: ELISA, coated human GPC3, antibody 0.01 nM;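 also: Plate-bound antigen coated at 1 µg/mL, antibody incubated 2 h at 37 °C, binding detected by HRP-conjugated secondary antibody with TMB substrate, read as absorbance at 450 nm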
Procedure: (§1) The specific method is described as follows: The antigen protein was diluted with PBS to a final concentration of 1 μg/mL, and the diluent was added to a 96-well ELISA plate at 50 μL/well. The plate was sealed with a plastic film and incubated at 4° C. overnight, washed twice with PBS the next day, and a blocking solution [PBS+2% (w/w) BSA] was added for blocking at room temperature for 2 h. […] After incubation at 37° C. for 2 h, the plate was washed 3 times with PBS. A horseradish peroxidase (HRP)-labeled secondary antibody (purchased from Merck, Cat. No. AP113P) was added for incubation at 37° C. for 1 h, and the plate was washed 5 times with PBS. A TMB substrate was added at 50 μL/well for incubation at room temperature for 10 min, then a stop solution (1.0M HCl) was added at 50 μL/well. An ELISA plate reader (Multimode Plate Reader, EnSight, purchased from Perkin Elmer) was used to read OD_{450 nm} values, with results as shown in Table 4 to Table 6, FIG. 1A, FIG. 1B, and FIG. 1C.

[5] = target: T1, human GPC3-His protein; test: ELISA, coated human GPC3, antibody 0.1 nM;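 also: antigen coated on 96-well plates at 1 µg/mL, antibody bound 2 h at 37 °C, detected with HRP-labeled secondary antibody and TMB substrate, acid-stopped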
Procedure: as §1

[6] = target: T3, human GPC3 on CHO-K1-human GPC3 cells (clone CHOK1-hGPC3.2B5) (human, UniProt P51654 25-554); test: FACS on CHOK1-hGPC3.2B5 cells;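 also: flow cytometry binding of chimeric antibodies to the cells, read out as mean fluorescence intensity, with the half-maximal concentration derived by curve fitting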
T3 construct: whole, on cells; Stably transfected CHO-K1 clone 2B5

[7] = target: T1, human GPC3-His protein; test: ELISA, coated human GPC3, antibody 100 nM;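 also: antibodies bound to antigen-coated 96-well plates (1 µg/mL), 2 h at 37 °C, detected with HRP-labelled secondary antibody and TMB substrate, absorbance read at 450 nm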
Procedure: as §1

[8] = target: T1, human GPC3-His protein; test: ELISA, coated human GPC3, antibody 0.001 nM
[9] = target: T1, human GPC3-His protein; test: ELISA, coated human GPC3, antibody 0.0001 nM
[10] = target: T4, polypeptide GC3pep (human); test: ELISA, GC3pep coated, antibody 1 nM;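 also: bound antibody detected with an HRP-conjugated secondary antibody and TMB substrate, reaction stopped with HCl, after 2 h binding at 37 °C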
T4 construct: also called membrane proximal polypeptide GC3pep
T4 peptide: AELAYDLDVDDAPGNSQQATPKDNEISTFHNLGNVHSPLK
Procedure: (§2) The plate was sealed with a plastic film and incubated at 4° C. overnight, washed twice with PBS the next day, and a blocking solution [PBS+2% (w/w) BSA] was added for blocking at room temperature for 2 h. […] After incubation at 37° C. for 2 h, the plate was washed 3 times with PBS. A horseradish peroxidase (HRP)-labeled secondary antibody (purchased from Merck, Cat. No. AP113P) was added for incubation at 37° C. for 1 h, and the plate was washed 5 times with PBS. A TMB substrate was added at 50 μL/well for incubation at room temperature for 10 min, then a stop solution (1.0M HCl) was added at 50 μL/well.

[11] = target: T4, polypeptide GC3pep; test: ELISA, GC3pep coated, antibody 0.1 nM;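 also: antibody allowed to bind the coated plate 2 h at 37 °C, then detected via HRP-conjugated secondary antibody and TMB development for 10 min, stopped with HCl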
Procedure: as §2

[12] = target: T4, polypeptide GC3pep; test: ELISA, GC3pep coated, antibody 100 nM;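 also: detection with an HRP-conjugated secondary antibody and TMB substrate, color reaction stopped with HCl before absorbance reading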
Procedure: as §2

[13] = target: T4, polypeptide GC3pep; test: ELISA, GC3pep coated, antibody 10 nM;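 also: antibody bound to the coated peptide for 2 h at 37 °C, detected through an HRP-conjugated secondary antibody with TMB colour development stopped by acid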
[14] = target: T4, polypeptide GC3pep; test: ELISA, GC3pep coated, antibody 0.01 nM;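 also: bound antibody detected with an HRP-conjugated secondary antibody and TMB substrate, color reaction stopped with HCl before reading absorbance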
Procedure: as §2

[15] = target: T4, polypeptide GC3pep; test: ELISA, GC3pep coated, antibody 0.0001 nM
[16] = target: T4, polypeptide GC3pep; test: ELISA, GC3pep coated, antibody 0.001 nM

B1: F2.152.3 human-murine chimeric antibody (antibody, human IgG1, kappa, V domains shown)
VH: EVQLQQSGPELVKPGASVKMSCKASGYTFTDYYMTWVKQSHGKSLEWIGRVNPRNGDTTYNQKFEGRATLTLDKSLSTAFMQLNSLTSEDSAVYYCINSKGHFDYWGQGTTLTVSS
VL: DVLMTQTPLSLPVSLGDQASISCRSSQSIVHSNGNTYLEWFLQKPGQSPKSLIYKVSNRFSGVPDRFSGSGSGTDFTLKISRVEAEDLGVYYCFQGSHVPPTFGAGTKLELKR
OD450 nm [1]: 2.43 OD450 | EC50 [2]: 0.23 nM | Max MFI [2]: 4490 MFI | OD450 nm [3]: 2.28 OD450 | OD450 nm [4]: 0.32 OD450 | OD450 nm [5]: 1.45 OD450 | EC50 [6]: 0.73 nM | Max MFI [6]: 2830 MFI | OD450 nm [7]: 2.43 OD450 | OD450 nm [8]: 0.13 OD450 | OD450 nm [9]: 0.1 OD450

B4: F1.57.21 (antibody, human IgG1, kappa, V domains shown)
VH: QVQLQQSGAELARPGASVKLSCKASGYTFTSYGISWVKQITGQGLEWIGEIYPRSESTYYNEKFKGKATLTADKSSSTAYMELRSLTSEDSAVYFCARDYGNIYSFAYWGQGTLVTVSA
VL: DIQMTQSPASLSASVGETVTITCRTSENIYSYLAWYQQKQGKSPQLLVYNAKTLAEGVPSRFSGSGSGTQFSLKINSLQPEDFGSYYCQHHYGTPLTFGAGTKLELKR
notes: human-murine chimeric antibody
OD450 nm [10]: 0.05 OD450 nm | OD450 nm [11]: 0.05 OD450 nm | OD450 nm [12]: 0.06 OD450 nm | OD450 nm [13]: 0.05 OD450 nm | OD450 nm [14]: 0.05 OD450 nm | OD450 nm [15]: 0.05 OD450 nm | OD450 nm [16]: 0.05 OD450 nm

B5: F1.41.17 (antibody, human IgG1, kappa, V domains shown)
VH: EVQLVESGGDSVKPGGSLKLSCAASGFTFSSYGMSWVRQTPDKRLEWVATINSGGSYTYYQDSVKGRFTISRDNAKNTLYLQMSSLKSEDTAIYYCVRHHYGSSYDYFDYWGQGTTLTVSS
VL: DIVMTQAAPSVPVMPGESVSISCRSSKSLLHSNGNTHLYWFLQRPGQSPQLLIYRMSNLASGVPDRFSGSGSGTAFTLRISRVEAEDVGVYYCMQHLEYPLTFGAGTKLELKR
notes: as for B4
OD450 nm [10]: 0.05 OD450 nm | OD450 nm [11]: 0.05 OD450 nm | OD450 nm [12]: 0.06 OD450 nm | OD450 nm [13]: 0.05 OD450 nm | OD450 nm [14]: 0.05 OD450 nm | OD450 nm [15]: 0.05 OD450 nm | OD450 nm [16]: 0.05 OD450 nm

The next lines start with the values.

OD450 nm [1]: 2.49 OD450 | EC50 [2]: 2.72 nM | Max MFI [2]: 5740 MFI | OD450 nm [3]: 2.04 OD450 | OD450 nm [4]: 0.19 OD450 | OD450 nm [5]: 0.87 OD450 | EC50 [6]: 2.58 nM | Max MFI [6]: 14100 MFI | OD450 nm [7]: 2.45 OD450 | OD450 nm [8]: 0.28 OD450 | OD450 nm [9]: 0.1 OD450
B2: F3.81.19 human-murine chimeric antibody (antibody, human IgG1, kappa, V domains shown)
VH: QVQLQQSGAELVRPGASVKLSCKASGYTFTDYEMHWVKQTPVHGLEWIGTIDPETGNTAYNQKFKGKATLTADKSSSTAYMELRSLTSEDSAVYYCTRPYSLTYWGQGTLVTVSA
VL: B1 VL with M4L, I29F, N35D, E39Q, F41Y, S51L, P101Y, A105S, L111I

OD450 nm [1]: 2.44 OD450 | EC50 [2]: 1.2 nM | Max MFI [2]: 4980 MFI | OD450 nm [3]: 2.18 OD450 | OD450 nm [4]: 0.38 OD450 | OD450 nm [5]: 1.62 OD450 | EC50 [6]: 0.85 nM | Max MFI [6]: 16200 MFI | OD450 nm [7]: 2.48 OD450 | OD450 nm [8]: 0.13 OD450 | OD450 nm [9]: 0.09 OD450
B3: F3.38.7 human-murine chimeric antibody (antibody, human IgG1, kappa, V domains shown)
VH: QVQLQQSGAELVRPGASVKLSCKASGYTFTDYEIHWVKQTPVLGLEWIGAIDPKTGNTAYNQKFMGKATLTADKSSTTAYMDLRSLTSEDSAVYYCTRYFSFAYWGQGTLVTVSA
VL: B1 VL with S28T, I29F, E39Q, F41Y, S51L, P101Y, A105S, L111I

OD450 nm [1]: 1.18 OD450 | EC50 [2]: 0.92 nM | Max MFI [2]: 1390 MFI | OD450 nm [3]: 1.41 OD450 | OD450 nm [4]: 0.26 OD450 | OD450 nm [5]: 0.83 OD450 | EC50 [6]: 0.89 nM | Max MFI [6]: 2370 MFI | OD450 nm [7]: 1.02 OD450 | OD450 nm [8]: 0.15 OD450 | OD450 nm [9]: 0.16 OD450
B6: F4.18.4 human-murine chimeric antibody (antibody, human IgG1, kappa, V domains shown)
VH: QVQLHQSGAEMAKPGASVNLSCKTSGFTFTDYGISWVKQRTRQGLEWIGDIYPRHINIYYNEKFKDKATLTADRSSSTAYMELRSMTSEDSAVYFCARRGTTGRGALDYWGQGTSLTVSS
VL: DILLTQSPAILSVSPGERVSFSCRASQSIGTSIHWYQQRTNGSPRLLIKYAFESISGIPSRFGGSGSRTDFTLTINSVESEDIADYYCQQTYNWPYTFGGGTKLEIKR
